Patent US20250002610A1 (Genmab, published 2025)
Substitutions are numbered along the chain they refer to.

T1: human DR4 (Death Receptor 4), cell surface expressed on human tumor cell lines (human, UniProt O00220 24-468)
T1 construct: also called TNFRSF10A; TRAIL-R1
T1 sequence: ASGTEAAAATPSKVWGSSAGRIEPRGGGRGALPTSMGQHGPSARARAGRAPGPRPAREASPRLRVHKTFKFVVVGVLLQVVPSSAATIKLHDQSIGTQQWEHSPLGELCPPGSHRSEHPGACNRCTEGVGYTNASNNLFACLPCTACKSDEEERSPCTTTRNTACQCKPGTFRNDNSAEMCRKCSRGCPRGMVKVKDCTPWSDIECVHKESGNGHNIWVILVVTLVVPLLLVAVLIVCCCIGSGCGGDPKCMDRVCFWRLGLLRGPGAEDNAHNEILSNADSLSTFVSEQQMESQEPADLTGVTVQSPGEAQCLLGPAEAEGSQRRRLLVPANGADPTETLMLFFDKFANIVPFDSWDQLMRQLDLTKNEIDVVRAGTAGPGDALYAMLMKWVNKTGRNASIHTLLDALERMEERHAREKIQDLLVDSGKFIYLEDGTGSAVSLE

T2: His-tagged recombinant Human FAPα (Acro Biosystems, Cat #FAP-H5244-100ug) (human, UniProt Q12884 26-760)
T2 construct: Bought reagent; not shown: His tag
T2 sequence (looked up): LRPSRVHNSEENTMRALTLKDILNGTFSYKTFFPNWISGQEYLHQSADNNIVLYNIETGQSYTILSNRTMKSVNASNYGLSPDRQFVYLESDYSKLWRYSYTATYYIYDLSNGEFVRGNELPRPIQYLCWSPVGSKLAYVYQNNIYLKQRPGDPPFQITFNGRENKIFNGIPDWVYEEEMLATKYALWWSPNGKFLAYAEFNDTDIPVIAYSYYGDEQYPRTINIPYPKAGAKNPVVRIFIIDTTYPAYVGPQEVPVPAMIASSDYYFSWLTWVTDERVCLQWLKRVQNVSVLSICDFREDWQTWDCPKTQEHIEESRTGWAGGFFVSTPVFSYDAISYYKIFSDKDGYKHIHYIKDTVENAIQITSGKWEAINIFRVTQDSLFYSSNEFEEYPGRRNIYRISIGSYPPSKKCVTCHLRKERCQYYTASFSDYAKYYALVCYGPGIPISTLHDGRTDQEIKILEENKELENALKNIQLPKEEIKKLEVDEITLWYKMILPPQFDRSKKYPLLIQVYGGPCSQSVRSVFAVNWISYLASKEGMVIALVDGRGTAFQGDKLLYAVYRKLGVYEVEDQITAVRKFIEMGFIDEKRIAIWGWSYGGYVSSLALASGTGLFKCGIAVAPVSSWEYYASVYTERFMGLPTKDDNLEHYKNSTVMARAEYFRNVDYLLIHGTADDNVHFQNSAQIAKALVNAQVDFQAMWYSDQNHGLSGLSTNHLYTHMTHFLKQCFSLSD

T3: His-tagged recombinant Cynomolgus FAPα (Acro Biosystems, Cat #FAP-C52H3-100ug) (cynomolgus monkey, UniProt A0A2K5VGF4 26-760)
T3 construct: Bought reagent; also called recombinant cynomolgus monkey FAPα; not shown: His tag of the vendor's construct (Acro Biosystems FAP-C52H3)
T3 sequence: T2 sequence (looked up) with S4P, V236F, E392D

B1: IgG1-DR4-FERR (antibody, V domains shown)
VH: QVQLQESGPGLVKPSGTLSLTCAVSGGSISSYSWWSWIRQPPGKGLEWIGELYHSGSTNYNPSLKSRVTISVDKSKNQFSLKLRSVTAADTAVYYCVRGVATIDYWGQGTLVTVSS
VL: QSALTQPPSASGSPGQSVTISCTGTSSDVGGYNFVSWYQQDPGKAPKLLIYEVTKRPSGVPDRFSGSKSGNTASLTVSGLQAEDEADYYCSSYAGSNNVMFGGGTKLTVLG
notes: Bivalent monoclonal IgG1 lambda
B2: BisG1-b12-FERL/DR4-FERR (bispecific antibody, human IgG1, kappa, lambda)
heavy 1: QVQLVQSGAEVKKPGASVKVSCQASGYRFSNFVIHWVRQAPGQRFEWMGWINPYNGNKEFSAKFQDRVTFTADTSANTAYMELRSLRSADTAVYYCARVGPYSWDDSPQDNYYMDVWGKGTTVIVSSASTKGPSVFPLAPSSKSTSGGTAALGCLVKDYFPEPVTVSWNSGALTSGVHTFPAVLQSSGLYSLSSVVTVPSSSLGTQTYICNVNHKPSNTKVDKRVEPKSCDKTHTCPPCPAPEFERGPSVFLFPPKPKDTLMISRTPEVTCVVVDVSHEDPEVKFNWYVDGVEVHNAKTKPREEQYNSTYRVVSVLTVLHQDWLNGKEYKCKVSNKALPAPIEKTISKAKGQPREPQVYTLPPSREEMTKNQVSLTCLVKGFYPSDIAVEWESNGQPENNYKTTPPVLDSDGSFLLYSKLTVDKSRWQQGNVFSCSVMHEALHNHYTQKSLSLSPG
light 1: EIVLTQSPGTLSLSPGERATFSCRSSHSIRSRRVAWYQHKPGQAPRLVIHGVSNRASGISDRFSGSGSGTDFTLTITRVEPEDFALYYCQVYGASSYTFGQGTKLERKRTVAAPSVFIFPPSDEQLKSGTASVVCLLNNFYPREAKVQWKVDNALQSGNSQESVTEQDSKDSTYSLSSTLTLSKADYEKHKVYACEVTHQGLSSPVTKSFNRGEC
heavy 2: QVQLQESGPGLVKPSGTLSLTCAVSGGSISSYSWWSWIRQPPGKGLEWIGELYHSGSTNYNPSLKSRVTISVDKSKNQFSLKLRSVTAADTAVYYCVRGVATIDYWGQGTLVTVSSASTKGPSVFPLAPSSKSTSGGTAALGCLVKDYFPEPVTVSWNSGALTSGVHTFPAVLQSSGLYSLSSVVTVPSSSLGTQTYICNVNHKPSNTKVDKRVEPKSCDKTHTCPPCPAPEFERGPSVFLFPPKPKDTLMISRTPEVTCVVVDVSHEDPEVKFNWYVDGVEVHNAKTKPREEQYNSTYRVVSVLTVLHQDWLNGKEYKCKVSNKALPAPIEKTISKAKGQPREPQVYTLPPSREEMTKNQVSLTCLVKGFYPSDIAVEWESNGQPENNYKTTPPVLDSDGSFFLYSRLTVDKSRWQQGNVFSCSVMHEALHNHYTQKSLSLSPG
light 2: QSALTQPPSASGSPGQSVTISCTGTSSDVGGYNFVSWYQQDPGKAPKLLIYEVTKRPSGVPDRFSGSKSGNTASLTVSGLQAEDEADYYCSSYAGSNNVMFGGGTKLTVLGQPKAAPSVTLFPPSSEELQANKATLVCLISDFYPGAVTVAWKADSSPVKAGVETTTPSKQSNNKYAASSYLSLTPEQWKSHRSYSCQVTHEGSTVEKTVAPTECS
notes: Fab-arm exchange of IgG1-b12-FERL and IgG1-DR4-FERR; also called bsIgG1-ctrl-FERLxDR4-FERR

What was measured:
[1] = molecular target: T1, human DR4 (Death Receptor 4), cell …; assay: flow cytometry, HCT-15 cells, average ± SEM; HCT-15 cells, average of n = 3
[2] = molecular target: T2, His-tagged recombinant Human FAPα (Acro …); assay: BLI, antigen immobilized on AR2G sensors
Experimental: (§1) Experiments were carried out while shaking at 1,000 RPM at 30° C. Amine Reactive 2nd Generation (AR2G) biosensors (Sartorius, Cat #18-5092) were activated by reaction with 20 mM EDC (N-(3-Dimethylaminopropyl)-N′-ethylcarbodiimide hydrochloride) (Sigma-Aldrich, Cat #03449) and 10 mM s-NHS (N-hydroxysulfosuccinimide sodium salt) (Sigma-Aldrich, Cat #56485) for 300 s. The activated AR2G sensors were loaded with 2.5 μg/mL His-tagged recombinant Human FAPα (Acro Biosystems, Cat #FAP-H5244-100ug) in 10 mM Sodium Acetate pH 5.0 (Sartorius, Cat #18-1069) or 2.5 μg/mL His-tagged recombinant Cynomolgus FAPα (Acro Biosystems, Cat #FAP-C52H3-100ug) in 10 mM Sodium Acetate pH 5.0 for 600 s and quenched with 1 M ethanolamine pH 8.5 (Sartorius Cat #18-1071) for 300 s. After a baseline measurement in Sample Diluent (1000 s; Sartorius, Cat #18-1104), the association (100 s) and dissociation (4,000 s) of functionally monovalent antibody was determined using a concentration range of 0.78-800 nM with two-fold dilution steps in Sample Diluent. The molecular mass of the antibodies used for the calculations was calculated from the sequences.
(§2) The Y-axis was aligned to the last 10 s of the baseline; Interstep Correction alignment to dissociation and Savitzky-Golay filtering were applied. Data traces with a response <0.05 nm were excluded from analysis. […]

[3] = molecular target: T3, His-tagged recombinant Cynomolgus FAPα …; assay: BLI, antigen immobilized on AR2G sensors
Experimental: as §1, §2

Row | Binder | EC50 [1] [µg/mL] | binding result [2] | binding result [3]
1 | B1 | 0.17 |  | 
2 | B2 |  | no binding (tested: 800 nM) | no binding (tested: 800 nM)
